Results on two molecules are retold here after publication doi:10.64898/2025.12.16.694593 (bioRxiv, 2025).

Data set [1] deals with T1, Mtb Ku (from Ku-HIS, TEV-cleaved) (Mycobacterium tuberculosis, UniProt A5U0X7 1-273).
T1 sequence: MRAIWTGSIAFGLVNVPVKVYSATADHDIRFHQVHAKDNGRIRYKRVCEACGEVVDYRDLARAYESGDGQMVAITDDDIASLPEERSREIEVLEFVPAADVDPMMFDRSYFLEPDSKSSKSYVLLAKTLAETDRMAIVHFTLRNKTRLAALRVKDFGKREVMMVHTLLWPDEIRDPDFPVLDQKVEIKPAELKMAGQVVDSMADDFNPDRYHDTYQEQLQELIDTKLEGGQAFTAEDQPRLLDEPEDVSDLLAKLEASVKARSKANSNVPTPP
In words: EMSA. (In general: In EMSA bound probe runs differently from free probe, usually more slowly.)

Data set [2] concerns the target T2, Mtb Ku released from RFP-Ku by TEV (Mycobacterium tuberculosis, UniProt A5U0X7 1-273).
T2 sequence: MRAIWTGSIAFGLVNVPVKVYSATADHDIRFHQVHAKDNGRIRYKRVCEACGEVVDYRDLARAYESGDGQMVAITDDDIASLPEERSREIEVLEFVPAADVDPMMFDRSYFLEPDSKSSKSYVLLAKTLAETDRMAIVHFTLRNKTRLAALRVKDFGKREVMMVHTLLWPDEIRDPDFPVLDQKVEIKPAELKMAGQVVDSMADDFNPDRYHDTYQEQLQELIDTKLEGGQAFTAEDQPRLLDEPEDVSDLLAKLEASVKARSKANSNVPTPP
In words: EMSA.

B1: 50 bp blunt end (dsDNA)
DNA 1: GCTAAGTCATCGTCTGTCGATCGATCTCTCGAGTAGTACAGGTCTAGAGG
DNA 2: CCTCTAGACCTGTACTACTCGAGAGATCGATCGACAGACGATGACTTAGC
In the case of B1, the binding result in data set [1] was “binds”.

B2: 32/20dT DNA (called 30 bp/20 dT in legends) (dsDNA)
DNA 1: GCCCTGCTGCCGACCAACGATGGTTACATTCC
DNA 2: GGAATGTAACCATCGTTGGTCGGCAGCAGGGCTTTTTTTTTTTTTTTTTTTT
For the molecule B2, the binding result in data set [1] and in data set [2] was “binds” in each case.
